We go through six molecules from paper PMC4335062, “Data-Driven Prediction and Design of bZIP Coiled-Coil Interactions” (PLoS Computational Biology, 2015).

Where no end group is shown, it is not given here.

The target in data set [1] is T1, XBP1 (Homo sapiens, UniProt P17861).
T1 construct: made in house
T1 sequence (P17861 70-133 limits assumed): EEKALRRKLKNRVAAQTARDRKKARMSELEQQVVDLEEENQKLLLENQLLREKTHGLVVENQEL
The settings on record: native human bZIP binding XBP1; cited from earlier work. The text has this:
We chose five human bZIP proteins as targets: X-box binding protein 1 (XBP1), JUN, Activating Transcription Factor (ATF) 3, ATF4 and ATF5. These are proteins for which an interaction partner was designed in prior work, but either the affinity or the specificity of the design left room for improvement. […] For example, XBP1-d1 was composed of heptads from N. vectensis, C. elegans and C. intestinalis proteins, and from previously designed bZIP binders. We also note that our four designs were composed of 24 distinct, non-recurring heptads. Thus, our design al ... || We compared the new designs to designed peptides targeting XBP1 and JUN reported by Grigoryan et al. for which FRET measurements were available. […] It should be noted that XBP1 presents a challenging target because three of its core a positions are occupied by asparagines. A matching asparagi ...

The target in data set [2] is partner bZIP coiled coil (Protein2). The settings on record: Protein2 = CI12 (CI), inter; 5000 assigned if Kd >5,000 nM or no binding; cited from earlier work. How it is done: Supplement pcbi.1004046.s020.csv, table | column: Kd || Fig 4 Designed bZIP-binding peptides inhibit interactions of native bZIP dimers. […] The dissociation constants at the indicated temperatures are Kd ≤ 1 nM for FOS-JUN, Kd ≤1 nM for XBP1-CREBZF, and Kd = 60 nM for ATF4-FOS, according to [18]. Fluorescence intensities were measured at both 37°C and 23°C, a ...

Data set [3] concerns the target T2, JUN bZIP construct, C-terminally fluoresceinated (human, UniProt P05412 252-315, fluorescein at the C-terminus).
T2 construct: source: previously described, donated by A.W. Reinke [18]
Briefly: FRET or BRET; direct-binding FRET at 37°C; 10 nM fluorescein-labelled bZIP (donor), rhodamine-labelled design (acceptor) titrated 0 to 1 μM; 150 mM KCl, 50 mM potassium phosphate pH 7.4, 0.1% Tween-20, 0.1% BSA. The settings on record: both partners purified. For orientation: BRET reads energy transfer from a luciferase to a nearby fluorophore.

In data set [4] the target is JUN (Homo sapiens, UniProt P05412). Further details: made in house. The settings on record: native human bZIP binding JUN; cited from earlier work. The text has this: For most bZIP pairs, binding of the N-terminally labeled designed peptide to a C-terminally labeled target gave very little signal, and such curves could rarely be fit to provide Kd values (S9–S12 Tables). In a few cases where interactions could be quantified with both N- and C-terminal dye labeling, we observed that the affinity of N-terminally labeled designs for C-terminally labeled targets was somewhat weaker than the affinity of C-terminally labeled designs (S5–S12 Tables). Enhanced affinities attributable to dye interactions have been reported previously. […] For example, XBP1-d1 was composed of heptads from N. vectensis, C. elegans and C. intestinalis proteins, and from previously designed bZIP binders. We also note that our four designs were composed of 24 distinct, non-recurring heptads. Thus, our design al ... || We compared the new designs to designed peptides targeting XBP1 and JUN reported by Grigoryan et al. for which FRET measurements were available. […] It should be noted that XBP1 presents a challenging target because three of its core a positions are occupied by asparagines. A matching asparagi ...

Data set [5] deals with the molecule itself. Briefly: FRET or BRET; homodimer Kd of the designed peptide determined by FRET, 23°C; dimer to monomers.
Data set [6] has as its target T3, Activating Transcription Factor 4 (ATF4) bZIP construct, C-terminally fluoresceinated (human, UniProt P18848 278-351, fluorescein at the C-terminus).
T3 construct: source: previously described, donated by A.W. Reinke [18]
T3 sequence (looked up): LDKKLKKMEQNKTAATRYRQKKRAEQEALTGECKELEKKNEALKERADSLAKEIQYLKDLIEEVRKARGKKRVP
In words: FRET or BRET; direct-binding FRET at 37°C; 10 nM fluorescein-labelled bZIP (donor), rhodamine-labelled design (acceptor) titrated 0 to 1 μM; 150 mM KCl, 50 mM potassium phosphate pH 7.4, 0.1% Tween-20, 0.1% BSA. The settings on record: both partners purified.

Data set [7] addresses off-target bZIPs of XBP1-d1 (among the 32 C-terminally fluoresceinated human bZIPs tested) (human). The description is as above.
For data set [8], the target named is T4, X-box binding protein 1 (XBP1) bZIP construct, C-terminally fluoresceinated (human, UniProt P17861 70-133, fluorescein at the C-terminus).
T4 construct: source: previously described, donated by A.W. Reinke [18]
T4 sequence (looked up): T1 sequence (P17861 70-133 limits assumed)
The data set is described as above. The settings on record: both partners purified.

In data set [9] the target is T5, ATF4 (Homo sapiens, UniProt P18848).
T5 construct: made in house
T5 sequence (P18848 278-341 limits assumed): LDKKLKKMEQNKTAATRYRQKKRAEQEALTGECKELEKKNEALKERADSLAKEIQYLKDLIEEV
The settings on record: native human bZIP binding ATF4; cited from earlier work. An excerpt:
For example, XBP1-d1 was composed of heptads from N. vectensis, C. elegans and C. intestinalis proteins, and from previously designed bZIP binders. We also note that our four designs were composed of 24 distinct, non-recurring heptads. Thus, our design al ...

Sequence of JUN (P05412 252-315 limits assumed): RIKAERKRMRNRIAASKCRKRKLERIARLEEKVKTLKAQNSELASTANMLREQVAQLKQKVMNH
T2 sequence (P05412 252-315): as the sequence (P05412 252-315 limits assumed) above

Consider ATF6: native human bZIP coiled coil, for which the values for the Kd in [1] and in [2] were 1 nM and 5000 nM, respectively.

B1: JUN-d1, rhodamine-labelled at the C-terminus (designed binder)
chain: GESKEYKKGSGSSIAATLEKEEANLEKMNKKLAAEIESLLKEKDKLESVLNYHEGC(Rhodamine Red C2‑maleimide)
notes: solubility linker after the His tag; added at the C-terminus for labelling; source: E. coli RP3098, purified (Ni-NTA under denaturing conditions, reverse-phase HPLC)
B1: binding in data set [3] was characterised by a dissociation constant (Kd) of 5.8 ± 0.7 nM.

B2: FOS: native human bZIP coiled coil (protein)
chain: EEKRRIRRERNKMAAAKCRNRRRELTDTLQAETDQLEDEKSALQTEIANLLKEKEKLEFILAAH
modifications: C-terminal TAMRA when used as FRET acceptor
As for B2, the Kd in data set [4] is 1 nM.

B3: ATF4-d1, rhodamine-labelled at the C-terminus (designed binder)
chain: GESKEYKKGSGSNQIKTLRTRLSKLRKDNLQLEKDIANLERKAKDLRAEKEQLEYELGC(Rhodamine Red C2‑maleimide)
notes: solubility linker after the His tag; added at the C-terminus for labelling; also used for the homodimer row; source: E. coli RP3098, purified (Ni-NTA under denaturing conditions, reverse-phase HPLC)
Turning to B3, the Kd in data set [5] came to 36.3 nM; in [6] it was 9.3 ± 2.3 nM.

B4: XBP1-d1, rhodamine-labelled at the C-terminus (designed binder)
chain: GESKEYKKGSGSEREAQLENRVAHLKEKNQELKAQNLHLKEALSEAQNRNQELKNDAGC(Rhodamine Red C2‑maleimide)
notes: solubility linker after the His tag; added at the C-terminus for labelling; built from heptads of native and previously designed bZIPs; source: E. coli RP3098, purified (Ni-NTA under denaturing conditions, reverse-phase HPLC)
For the molecule B4, the Kd in [7] is over 5000 nM; in [8] it was 172 ± 65 nM.

B5: ATF6B: native human bZIP coiled coil (protein)
chain: MAELMLLSEIADPTRFFTDNLLSPEDWGLQNSTLYSGLDEVAEEQTQLFRCPEQDVPFDGSSLDVGMDVSPSEPPWELLPIFPDLQVKSEPSSPCSSSSLSSESSRLSTEPSSEALGVGEVLHVKTESLAPPLCLLGDDPTSSFETVQINVIPTSDDSSDVQTKIEPVSPCSSVNSEASLLSADSSSQAFIGEEVLEVKTESLSPSGCLLWDVPAPSLGAVQISMGPSLDGSSGKALPTRKPPLQPKPVVLTTVPMPSRAVPPSTTVLLQSLVQPPPVSPVVLIQGAIRVQPEGPAPSLPRPERKSIVPAPMPGNSCPPEVDAKLLKRQQRMIKNRESACQSRRKKKEYLQGLEARLQAVLADNQQLRRENAALRRRLEALLAENSELKLGSGNRKVVCIMVFLLFIAFNFGPVSISEPPSAPISPRMNKGEPQPRRHLLGFSEQEPVQGVEPLQGSSQGPKEPQPSPTDQPSFSNLTAFPGGAKELLLRDLDQLFLSSDCRHFNRTESLRLADELSGWVQRHQRGRRKIPQRAQERQKSQPRKKSPPVKAVPIQPPGPPERDSVGQLQLYRHPDRSQPAFLDAIDRREDTFYVVSFRRDHLLLPAISHNKTSRPKMSLVMPAMAPNETLSGRGAPGDYEEMMQIECEVMDTRVIHIKTSTVPPSLRKQPSPTPGNATGGPLPVSAASQAHQASHQPLYLNHP
modifications: fluorescein at the C-terminus (FRET donor) or TAMRA (FRET acceptor), by assay
notes: native human bZIP coiled coil
As for B5, in [9], the Kd was at least 5000 nM.

One may read the Kd as the concentration at which binding is half-saturated.
